Measured values as given in US20070059799A1.
Read-outs that look alike come from different tables or passages of the source.

How the values were obtained:
HLA-A*1101 (human) [1] = experiment: inhibition of 125I-labelled standard peptide binding to purified HLA
HLA-A*3101 (human) [2] = experiment: as above
HLA-A*3301 (human) [3] = experiment: as above
HLA-A*03 (human) = experiment: competition with 125I-labelled probe peptide for purified HLA, gel filtration
HLA-A*0301 (human) [4] = experiment: competition with 125I-labelled standard peptide on purified HLA, gel filtration
HLA-A*1101 (human) [5] = experiment: as above
HLA-A*3101 (human) [6] = experiment: as above
HLA-A*6801 (human) = experiment: as above; conditions: remark: other sources report otherwise
HLA-A*0301 (human) [7] = biological target: HLA-A*0301 (human)
HLA-B*5401 (human) = experiment: competition with 125I-labelled probe peptide for purified HLA, gel filtration; conditions: remark: other sources report otherwise
HLA-A*0301 (human) [8] = conditions: remark: other sources report otherwise
HLA-A*0301 (human) [9] = experiment: competition with 125I-labelled probe peptide for purified HLA, gel filtration
HLA-A*3301 (human) [10] = experiment: competition with 125I-labelled standard peptide on purified HLA, gel filtration
HLA-B*0702 (human) = experiment: competition with 125I-labelled standard peptide for purified HLA, gel filtration
HLA-B*5301 (human) = experiment: as above
HLA-A*3101 (human) [11] = experiment: competition with 125I-labelled probe peptide for purified HLA, gel filtration
HLA-A*0201 (Human) = experiment: competition with 125I-labelled standard peptide for purified HLA, gel filtration
[12] = remark: other sources report otherwise

Binder: PLTVNEKR (modifications not checked) [HBV POL 98 peptide PLTVNEKR]
- binding affinity ratio (IC50 of standard peptide / IC50 of test peptide) (HLA-A*1101 (human) [1]): -0.0002
- binding affinity ratio (IC50 of standard peptide / IC50 of test peptide) (HLA-A*3101 (human) [2]): -0.0009
- binding affinity ratio (IC50 of standard peptide / IC50 of test peptide) (HLA-A*3301 (human) [3]): -0.0009

Binder: PARDVLCLR (modifications not checked) [HBV X 11 peptide …]
- binding affinity ratio (IC50 of standard peptide / IC50 of test peptide) (HLA-A*3101 (human) [2]): 0.01
- binding affinity ratio (IC50 of standard peptide / IC50 of test peptide) (HLA-A*3301 (human) [3]): 0.018

Binder: SVVRRAFPH (modifications not checked) [peptide 20.0131 (HBV pol 524, …)]
- IC50 (HLA-A*03 (human); [12]): 100 nM

Binder: SAGPCALR (modifications not checked) [HBV X 65 8-mer peptide SAGPCALR (SEQ ID NO: 651)]
- binding affinity ratio (IC50 of standard peptide / IC50 of test peptide) (HLA-A*0301 (human) [4]; [12]): -0.0002
- binding affinity ratio (IC50 of standard peptide / IC50 of test peptide) (HLA-A*1101 (human) [5]; [12]): 0.002
- binding affinity ratio (IC50 of standard peptide / IC50 of test peptide) (HLA-A*3101 (human) [6]; [12]): 0.0029
- binding affinity ratio (IC50 of standard peptide / IC50 of test peptide) (HLA-A*6801 (human)): 0.036

Binder: HTLWKAGILYK (modifications not checked) [peptide 1147.16 (HBV pol 149, …)]
- IC50 (HLA-A*03 (human)): 20 nM

Binder: WIRTPPAY (modifications not checked) [WIRTPPAY (HBV NUC 125)]
- binding affinity ratio (IC50 of standard peptide / IC50 of test peptide) (HLA-A*0301 (human) [7]): -0.0002

Binder: YSLNFMGY (modifications not checked) [YSLNFMGY (HBV POL 580)]
- binding affinity ratio (IC50 of standard peptide / IC50 of test peptide) (HLA-A*0301 (human) [7]): -0.0002

Binder: LPIHTAELLA (modifications not checked) [HBV POL 723 peptide 16.0181 (…)]
- IC50 (HLA-B*5401 (human)): 30 nM

Binder: WLQFRNSK (modifications not checked) [WLQFRNSK (HBV POL 314)]
- binding affinity ratio (IC50 of standard peptide / IC50 of test peptide) (HLA-A*0301 (human) [7]): -0.0002

Binder: TAELLAACFAR (modifications not checked) [HBV POL 716 …]
- binding affinity ratio (IC50 of standard peptide / IC50 of test peptide) (HLA-A*0301 (human) [8]): 0.0006

Binder: LLDTASALYR (modifications not checked) [HBV NUC 30 peptide …]
- binding affinity ratio (IC50 of standard peptide / IC50 of test peptide) (HLA-A*0301 (human) [9]): 0.005

Binder: SAICSVVR (modifications not checked) [HBV POL 520 8-mer peptide SAICSVVR (SEQ ID NO: 652)]
- binding affinity ratio (IC50 of standard peptide / IC50 of test peptide) (HLA-A*1101 (human) [5]; [12]): 0.0071
- binding affinity ratio (IC50 of standard peptide / IC50 of test peptide) (HLA-A*3101 (human) [6]; [12]): 0.028
- binding affinity ratio (IC50 of standard peptide / IC50 of test peptide) (HLA-A*3301 (human) [10]; [12]): 0.0081
- binding affinity ratio (IC50 of standard peptide / IC50 of test peptide) (HLA-A*6801 (human)): 0.069

Binder: NPLGFFPDHQL (modifications not checked) [HBV ENV 9 peptide […]]
- binding affinity ratio (IC50 of standard peptide / IC50 of test peptide) (HLA-B*0702 (human)): 0.0012
- binding affinity ratio (IC50 of standard peptide / IC50 of test peptide) (HLA-B*5301 (human)): 0.0028

Binder: TLPETTVVR (modifications not checked) [HBV NUC 171 9-mer peptide … (SEQ ID NO: 662)]
- binding affinity ratio (IC50 of standard peptide / IC50 of test peptide) (HLA-A*3101 (human) [6]; [12]): 0.0009
- binding affinity ratio (IC50 of standard peptide / IC50 of test peptide) (HLA-A*6801 (human)): 0.018

Binder: SALNPADDPSR (modifications not checked) [HBV POL 771 11-mer peptide … (SEQ ID NO: 654)]
- binding affinity ratio (IC50 of standard peptide / IC50 of test peptide) (HLA-A*0301 (human) [4]): -0.0004
- binding affinity ratio (IC50 of standard peptide / IC50 of test peptide) (HLA-A*1101 (human) [5]): -0.0003
- binding affinity ratio (IC50 of standard peptide / IC50 of test peptide) (HLA-A*3101 (human) [6]): -0.0012
- binding affinity ratio (IC50 of standard peptide / IC50 of test peptide) (HLA-A*3301 (human) [10]): -0.0023

Binder: RLVVDFSQFSR (modifications not checked) [peptide 26.0539 (HBV POL 376, …)]
- IC50 (HLA-A*03 (human)): 39 nM
- IC50 (HLA-A*3101 (human) [11]): 7 nM

Binder: GLLGFAAPFT (modifications not checked) [HBV POL 627 peptide …]
- binding affinity ratio (IC50 of standard peptide / IC50 of test peptide) (HLA-A*0201 (Human)): 0.0049

Binder: GVWIRTPPAYR (modifications not checked) [peptide 26.0535 (HBV X NUC FUS 299, …)]
- IC50 (HLA-A*03 (human)): 58 nM
- IC50 (HLA-A*3101 (human) [11]): 3 nM

Binder: VSFGVWIR (modifications not checked) [peptide 26.0023 (HBV X NUC FUS 296, VSFGVWIR)]
- IC50 (HLA-A*03 (human); [12]): 2750 nM

Binder: TSAICSVVRR (modifications not checked) [HBV POL 519 10-mer peptide … (SEQ ID NO: 668)]
- binding affinity ratio (IC50 of standard peptide / IC50 of test peptide) (HLA-A*0301 (human) [4]): 0.0018

Binder: GLSPTVWL (modifications not checked) [HBV ENV 348 peptide GLSPTVWL]
- binding affinity ratio (IC50 of standard peptide / IC50 of test peptide) (HLA-A*0201 (Human)): 0.0036
